Measured values taken from PMC10031210.
Read-outs that look alike come from different tables or passages of the source.

How the values were obtained:
[1] = target: N-FkpA (N-terminal domain of FkpA) (E. coli) (UniProt P45523); test: AUC
[2] = target: unfolded transmembrane β-barrel of outer membrane protein A (uOmpA171) (E. coli) (UniProt P0A910); test: AUC
Target sequence in this assay (P0A910 22-192): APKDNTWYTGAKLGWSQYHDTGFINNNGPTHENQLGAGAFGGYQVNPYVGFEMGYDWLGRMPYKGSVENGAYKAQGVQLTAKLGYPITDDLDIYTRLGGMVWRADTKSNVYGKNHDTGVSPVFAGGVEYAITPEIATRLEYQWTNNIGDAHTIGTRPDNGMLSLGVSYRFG

[3] = target: unfolded transmembrane β-barrel of outer membrane protein A (uOmpA171) (E. coli) (UniProt P0A910); test: AUC; remark: listed apart in the source
Target sequence in this assay (P0A910 22-192): as above

[4] = target: unfolded transmembrane β-barrel of outer membrane protein A (uOmpA171) (E. coli) (UniProt P0A910); test: AUC; remark: listed apart in the source
Target sequence in this assay (P0A910 22-192): as above

[5] = target: unfolded transmembrane β-barrel of outer membrane protein A (uOmpA171) (E. coli) (UniProt P0A910); test: AUC; remark: listed apart in the source
Target sequence in this assay (P0A910 22-192): as above

[6] = target: FkpA (full-length, dimeric form) (E. coli) (UniProt P45523); test: AUC
[7] = target: unfolded transmembrane β-barrel of outer membrane protein A (uOmpA171) (E. coli) (UniProt P0A910); test: AUC; remark: listed apart in the source
Target sequence in this assay (P0A910 22-192): as above

[8] = target: unfolded outer membrane protein X (uOmpX) (E. coli) (UniProt P0A917); test: cross-linking
[9] = target: unfolded transmembrane β-barrel of outer membrane protein A (uOmpA171) (E. coli) (UniProt P0A910); test: cross-linking
[10] = target: unfolded β-barrel assembly machine A (uBamA) (UniProt P0A940); test: cross-linking

N-FkpA (N-terminal domain of FkpA) (from UniProt P45523 26-270) (domain or fragment)
stoichiometry N [1]: 2
Kd [2]: 44000 nM

FkpA (full-length, dimeric form) (from UniProt P45523 26-270) (natural protein)
Kd [3]: 8 nM
Kd [4]: 400 nM
Kd [5]: 700 nM
stoichiometry N [6]: 2
Kd [7]: 2900 nM
Kd [2]: 1100 nM

FkpA pAzF variant Y225pAzF (from UniProt P45523 26-270) (natural protein)
crosslinking efficiency [8]: 81%
crosslinking efficiency [9]: 83.2%
crosslinking efficiency [10]: 81.8%
